The record followed here is article PMC3314968.

For experiment [1], the target named is K48-linked diubiquitin (UniProt P0CG48). Nature of the experiment: ITC. The note with it: domain or fragment.
In experiment [2] the target is K63-linked diubiquitin (UniProt P0CG48). Briefly: ITC. The note with it: domain or fragment.

Sequence of human UBAP1 SOUBA domain (389-502), wild-type (Q9NZ09 389-502): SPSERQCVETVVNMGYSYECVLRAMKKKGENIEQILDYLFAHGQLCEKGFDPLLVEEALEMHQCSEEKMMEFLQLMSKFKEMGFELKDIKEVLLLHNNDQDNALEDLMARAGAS

Turning to “human UBAP1 SOUBA domain (389-502), wild-type (from UniProt Q9NZ09 389-502)”, the Kd in experiment [1] was found to be 65 µM; in experiment [2] it was 41 µM.
